Test results published in article PMC10182654, “The pattern of histone H3 epigenetic posttranslational modifications is regulated by the VRK1 chromatin kinase” (Epigenetics & Chromatin, 2023).

Target: T1, GST-PCAF (aa 352–832) (human, UniProt Q92831 352-832)
T1 construct: PCAF (KAT2B), residues 352-832, fused to GST; Written GST-PCAF; source: bacterially expressed and purified
Test: pull-down; purified VRK1-His and GST-PCAF (aa 352–832) incubated in 20 mM Tris–HCl pH 7.5, 5 mM MgCl2, 0.5 mM DTT, 150 mM KCl at 37 °C for 45 min; Glutathione Sepharose 4B overnight at 4 °C; SDS-PAGE, Coomassie staining; dose-dependent
Conditions: both partners purified

T1 sequence (Q92831 352-832): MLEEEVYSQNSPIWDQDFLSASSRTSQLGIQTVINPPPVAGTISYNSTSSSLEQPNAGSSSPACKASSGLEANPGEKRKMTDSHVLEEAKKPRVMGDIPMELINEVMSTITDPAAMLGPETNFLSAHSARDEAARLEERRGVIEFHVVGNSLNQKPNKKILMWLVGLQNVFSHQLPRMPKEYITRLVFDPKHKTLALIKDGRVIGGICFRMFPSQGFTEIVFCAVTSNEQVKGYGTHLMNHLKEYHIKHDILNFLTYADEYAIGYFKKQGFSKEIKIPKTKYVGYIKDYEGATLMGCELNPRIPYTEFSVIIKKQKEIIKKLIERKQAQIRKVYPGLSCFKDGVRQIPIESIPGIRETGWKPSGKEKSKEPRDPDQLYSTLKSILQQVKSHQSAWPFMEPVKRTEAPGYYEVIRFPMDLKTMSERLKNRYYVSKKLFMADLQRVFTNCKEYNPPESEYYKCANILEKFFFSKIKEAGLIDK

B1: VRK1-His (enzyme, human, UniProt Q99986 1-396, looked up)
chain: MPRVKAAQAGRQSSAKRHLAEQFAVGEIITDMAKKEWKVGLPIGQGGFGCIYLADMNSSESVGSDAPCVVKVEPSDNGPLFTELKFYQRAAKPEQIQKWIRTRKLKYLGVPKYWGSGLHDKNGKSYRFMIMDRFGSDLQKIYEANAKRFSRKTVLQLSLRILDILEYIHEHEYVHGDIKASNLLLNYKNPDQVYLVDYGLAYRYCPEGVHKEYKEDPKRCHDGTIEFTSIDAHNGVAPSRRGDLEILGYCMIQWLTGHLPWEDNLKDPKYVRDSKIRYRENIASLMDKCFPEKNKPGEIAKYMETVKLLDYTEKPLYENLRDILLQGLKAIGSKDDGKLDLSVVENGGLKAKTITKKRKKEIEESKEPGVEDTEWSNTQTEEAIQTRSRTRKRVQK
notes: VRK1 with a His tag, bacterially expressed and purified; Printed both as His-VRK1 (results) and VRK1-His (methods); the end of the tag cannot be told; also called His-VRK1; source: bacterially expressed and purified
B1: binds.
